Eleven molecules from patent US20170015742A1 (published 2017) can be followed below.

In general, Kd refers to the concentration at which binding is half-saturated. A high value points to lower affinity. As a reminder, the kon is a measure of how fast the partners come together. The low end stands for slower complex formation, the high end for faster complex formation.

The labels stand for the following.
B1: DVD3906 (PR-1565035) (bispecific antibody, human IgG1, kappa, L234A L235A)
heavy: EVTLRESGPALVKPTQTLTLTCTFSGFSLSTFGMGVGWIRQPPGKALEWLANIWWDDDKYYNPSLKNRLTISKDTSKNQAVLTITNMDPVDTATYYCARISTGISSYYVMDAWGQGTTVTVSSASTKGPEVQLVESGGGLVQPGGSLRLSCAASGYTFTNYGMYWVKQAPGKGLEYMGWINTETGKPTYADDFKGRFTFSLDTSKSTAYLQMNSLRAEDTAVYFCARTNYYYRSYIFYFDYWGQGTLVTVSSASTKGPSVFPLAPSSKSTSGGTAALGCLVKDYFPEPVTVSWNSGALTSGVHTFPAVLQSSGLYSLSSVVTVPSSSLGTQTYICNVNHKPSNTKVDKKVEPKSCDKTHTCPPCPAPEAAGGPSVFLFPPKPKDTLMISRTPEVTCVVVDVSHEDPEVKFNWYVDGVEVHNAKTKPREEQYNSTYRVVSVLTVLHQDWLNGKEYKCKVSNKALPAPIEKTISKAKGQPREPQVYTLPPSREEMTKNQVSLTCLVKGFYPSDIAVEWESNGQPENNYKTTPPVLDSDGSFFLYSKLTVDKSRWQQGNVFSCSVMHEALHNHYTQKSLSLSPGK
light: DFQLTQSPSSLSASVGDRVTITCERSSGDIGDTYVSWYQQKPGKAPKNVIYGNDQRPSGVPSRFSGSGSGNSATLTISSLQPEDFATYFCQSYDSDIDIVFGQGTKVEIKGTVAAPSVFIFPPDTQLTQSPSSLSASVGDRVTISCRASESVSTHMHWYQQKPGKAPKLLIYGASNLESGVPSRFSGSGSGTDFTLTISSLQPEDFATYFCQQSWNDPFTFGQGTKVEIKRTVAAPSVFIFPPSDEQLKSGTASVVCLLNNFYPREAKVQWKVDNALQSGNSQESVTEQDSKDSTYSLSSTLTLSKADYEKHKVYACEVTHQGLSSPVTKSFNRGEC
notes: DVD-Ig; linkers HG-short/LK-long, inner hBDB-4G8.15 (VEGF); human IgG1 L234A, L235A / kappa
B2: DVD3904 (PR-1565031) (bispecific antibody, human IgG1, kappa, L234A L235A)
heavy: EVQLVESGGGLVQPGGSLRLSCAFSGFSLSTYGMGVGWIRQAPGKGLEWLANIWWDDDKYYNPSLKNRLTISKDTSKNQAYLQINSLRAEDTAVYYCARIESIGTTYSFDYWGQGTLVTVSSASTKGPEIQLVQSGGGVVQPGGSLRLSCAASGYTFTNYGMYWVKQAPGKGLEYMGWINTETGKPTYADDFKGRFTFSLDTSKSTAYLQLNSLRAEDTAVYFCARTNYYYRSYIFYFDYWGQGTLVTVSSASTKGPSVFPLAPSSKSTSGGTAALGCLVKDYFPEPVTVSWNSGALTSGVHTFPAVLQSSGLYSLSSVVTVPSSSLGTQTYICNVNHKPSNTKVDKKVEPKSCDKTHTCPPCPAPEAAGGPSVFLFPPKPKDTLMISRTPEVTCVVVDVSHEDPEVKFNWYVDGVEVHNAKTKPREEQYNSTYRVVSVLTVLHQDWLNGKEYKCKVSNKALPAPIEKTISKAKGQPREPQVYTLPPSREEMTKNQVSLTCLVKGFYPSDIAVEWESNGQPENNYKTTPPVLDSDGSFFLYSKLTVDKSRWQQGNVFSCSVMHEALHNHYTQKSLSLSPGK
light: DFQLTQSPSSLSASVGDRVTITCERSSGDIGDSYVSWYQQKPGKAPKNVIYADDQRPSGVPSRFSGSGSGNSASLTISSLQPEDFATYFCQSYDINIDIVFGQGTKVEIKGTVAAPSVFIFPPDTVLTQSPSTLSASPGERATISCRASESVSTHMHWYQQKPGQAPKLLIYGASNLESGVPSRFSGSRSGTDFTLTISSLQPEDFAVYFCQQSWNDPFTFGQGTKVEIKRTVAAPSVFIFPPSDEQLKSGTASVVCLLNNFYPREAKVQWKVDNALQSGNSQESVTEQDSKDSTYSLSSTLTLSKADYEKHKVYACEVTHQGLSSPVTKSFNRGEC
notes: DVD-Ig; linkers HG-short/LK-long, inner hBDB-4G8.14 (VEGF); human IgG1 L234A, L235A / kappa
B3: DVD3905 (PR-1565032) (bispecific antibody, human IgG1, kappa, L234A L235A)
heavy: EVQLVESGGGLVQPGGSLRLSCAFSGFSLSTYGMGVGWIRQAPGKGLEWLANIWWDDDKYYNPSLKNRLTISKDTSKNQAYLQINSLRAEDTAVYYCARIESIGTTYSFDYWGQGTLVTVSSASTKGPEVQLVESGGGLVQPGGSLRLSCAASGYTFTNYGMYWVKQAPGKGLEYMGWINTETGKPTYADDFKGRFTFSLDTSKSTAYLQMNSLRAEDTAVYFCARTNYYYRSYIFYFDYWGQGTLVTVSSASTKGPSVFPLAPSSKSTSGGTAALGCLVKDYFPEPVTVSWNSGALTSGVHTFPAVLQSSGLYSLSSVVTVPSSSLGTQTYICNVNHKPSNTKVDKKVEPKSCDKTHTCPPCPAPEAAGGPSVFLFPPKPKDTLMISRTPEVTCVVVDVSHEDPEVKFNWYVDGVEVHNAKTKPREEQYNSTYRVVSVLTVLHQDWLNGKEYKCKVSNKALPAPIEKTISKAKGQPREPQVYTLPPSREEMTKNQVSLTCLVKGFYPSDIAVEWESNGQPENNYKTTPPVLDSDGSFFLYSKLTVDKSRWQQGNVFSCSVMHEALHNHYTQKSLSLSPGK
light: B1 light with T33S, G52A, N53D, T74S, S95I, D96N
notes: DVD-Ig; outer hBDI-9E8.12 (PDGF), linkers HG-short/LK-long, inner hBDB-4G8.15 (VEGF); human IgG1 L234A, L235A / kappa
B4: 4G8.3-SS-9E8.4 (PR-1564011) (bispecific antibody, human IgG1, kappa, L234A L235A)
heavy: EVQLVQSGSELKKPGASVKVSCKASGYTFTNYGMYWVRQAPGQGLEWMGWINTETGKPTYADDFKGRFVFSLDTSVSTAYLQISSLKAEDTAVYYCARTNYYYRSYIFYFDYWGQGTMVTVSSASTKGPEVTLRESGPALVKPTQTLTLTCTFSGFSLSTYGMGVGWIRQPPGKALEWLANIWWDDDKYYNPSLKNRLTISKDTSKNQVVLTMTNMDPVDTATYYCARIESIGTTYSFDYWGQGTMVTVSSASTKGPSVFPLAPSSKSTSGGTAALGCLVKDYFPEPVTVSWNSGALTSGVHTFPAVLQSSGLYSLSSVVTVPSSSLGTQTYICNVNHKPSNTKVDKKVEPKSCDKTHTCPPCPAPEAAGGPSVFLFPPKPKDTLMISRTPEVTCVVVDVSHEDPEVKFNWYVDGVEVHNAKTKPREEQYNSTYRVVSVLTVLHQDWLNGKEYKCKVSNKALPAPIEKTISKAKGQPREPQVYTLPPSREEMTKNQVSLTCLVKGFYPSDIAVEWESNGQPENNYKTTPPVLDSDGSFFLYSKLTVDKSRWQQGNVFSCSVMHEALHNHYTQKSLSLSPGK
light: DTVLTQSPATLSLSPGERATLSCRASESVSTHMHWYQQKPGQAPRLLIYGASNLESGVPARFSGSGSGTDFTLTISSLEPEDFAVYFCQQSWNDPFTFGQGTKLEIKRTVAAPEFVLTQSPGTLSLSPGERATLSCERSSGDIGDSYVSWYQQKPGQAPRLVIYADDQRPSGIPDRFSGSGSGTDFTLTISRLEPEDFAVYYCQSYDINIDIVFGGGTKVEIKGTVAAPSVFIFPPSDEQLKSGTASVVCLLNNFYPREAKVQWKVDNALQSGNSQESVTEQDSKDSTYSLSSTLTLSKADYEKHKVYACEVTHQGLSSPVTKSFNRGEC
notes: DVD-Ig; outer hBDB-4G8.3 (VEGF), linkers HG-short/LK-short, inner hBDI-9E8.4 (PDGF); human IgG1 L234A, L235A / kappa
B5: 4G8.3-LS-9E8.4 (PR-1564013) (bispecific antibody, human IgG1, kappa, L234A L235A)
heavy: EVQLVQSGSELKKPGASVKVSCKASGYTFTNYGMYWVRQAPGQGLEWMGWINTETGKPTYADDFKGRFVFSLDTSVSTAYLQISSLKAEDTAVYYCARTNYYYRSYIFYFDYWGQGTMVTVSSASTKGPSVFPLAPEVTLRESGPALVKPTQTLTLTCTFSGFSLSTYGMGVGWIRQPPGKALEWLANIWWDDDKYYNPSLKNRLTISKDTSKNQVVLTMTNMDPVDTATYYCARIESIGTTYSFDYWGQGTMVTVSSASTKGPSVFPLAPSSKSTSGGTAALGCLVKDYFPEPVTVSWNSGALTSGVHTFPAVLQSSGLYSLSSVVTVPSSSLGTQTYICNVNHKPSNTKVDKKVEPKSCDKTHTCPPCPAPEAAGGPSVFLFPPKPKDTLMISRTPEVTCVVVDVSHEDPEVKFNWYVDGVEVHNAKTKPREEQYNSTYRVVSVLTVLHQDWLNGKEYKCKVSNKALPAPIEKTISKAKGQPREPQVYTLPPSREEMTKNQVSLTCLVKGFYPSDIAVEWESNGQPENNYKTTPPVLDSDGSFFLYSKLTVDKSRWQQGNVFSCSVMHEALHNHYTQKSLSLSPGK
light: B4 light
notes: DVD-Ig; outer hBDB-4G8.3 (VEGF), linkers HG-long/LK-short, inner hBDI-9E8.4 (PDGF); human IgG1 L234A, L235A / kappa
B6: 4G8.3-SL-9E8.4 (PR-1564012) (bispecific antibody, human IgG1, kappa, L234A L235A)
heavy: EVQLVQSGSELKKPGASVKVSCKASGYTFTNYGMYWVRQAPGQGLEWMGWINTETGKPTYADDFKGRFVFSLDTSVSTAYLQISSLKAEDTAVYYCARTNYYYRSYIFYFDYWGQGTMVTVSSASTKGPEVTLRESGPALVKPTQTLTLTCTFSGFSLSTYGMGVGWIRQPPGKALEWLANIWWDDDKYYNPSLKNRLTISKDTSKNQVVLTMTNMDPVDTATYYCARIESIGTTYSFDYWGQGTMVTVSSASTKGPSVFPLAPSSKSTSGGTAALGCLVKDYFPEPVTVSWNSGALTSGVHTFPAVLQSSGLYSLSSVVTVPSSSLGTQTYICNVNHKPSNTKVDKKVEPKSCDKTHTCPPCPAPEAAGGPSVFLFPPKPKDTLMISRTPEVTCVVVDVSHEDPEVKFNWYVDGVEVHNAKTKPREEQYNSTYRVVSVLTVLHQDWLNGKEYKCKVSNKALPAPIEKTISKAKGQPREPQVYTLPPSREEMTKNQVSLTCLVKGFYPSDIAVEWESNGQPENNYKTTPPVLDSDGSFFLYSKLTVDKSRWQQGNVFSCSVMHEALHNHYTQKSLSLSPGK
light: DTVLTQSPATLSLSPGERATLSCRASESVSTHMHWYQQKPGQAPRLLIYGASNLESGVPARFSGSGSGTDFTLTISSLEPEDFAVYFCQQSWNDPFTFGQGTKLEIKRTVAAPSVFIFPPEFVLTQSPGTLSLSPGERATLSCERSSGDIGDSYVSWYQQKPGQAPRLVIYADDQRPSGIPDRFSGSGSGTDFTLTISRLEPEDFAVYYCQSYDINIDIVFGGGTKVEIKGTVAAPSVFIFPPSDEQLKSGTASVVCLLNNFYPREAKVQWKVDNALQSGNSQESVTEQDSKDSTYSLSSTLTLSKADYEKHKVYACEVTHQGLSSPVTKSFNRGEC
notes: DVD-Ig; outer hBDB-4G8.3 (VEGF), linkers HG-short/LK-long, inner hBDI-9E8.4 (PDGF); human IgG1 L234A, L235A / kappa
B7: 4G8.3-SL-9E8.4 (g) (PR-1572105) (bispecific antibody, human IgG1, kappa, L234A L235A)
heavy: EVQLVQSGSELKKPGASVKVSCKASGYTFTNYGMYWVRQAPGQGLEWMGWINTETGKPTYADDFKGRFVFSLDTSVSTAYLQISSLKAEDTAVYYCARTNYYYRSYIFYFDYWGQGTMVTVSSASTKGPEVTLRESGPALVKPTQTLTLTCTFSGFSLSTYGMGVGWIRQPPGKALEWLANIWWDDDKYYNPSLKNRLTISKDTSKNQVVLTMTNMDPVDTATYYCARIESIGTTYSFDYWGQGTMVTVSSASTKGPSVFPLAPSSKSTSGGTAALGCLVKDYFPEPVTVSWNSGALTSGVHTFPAVLQSSGLYSLSSVVTVPSSSLGTQTYICNVNHKPSNTKVDKKVEPKSCDKTHTCPPCPAPEAAGGPSVFLFPPKPKDTLMISRTPEVTCVVVDVSHEDPEVKFNWYVDGVEVHNAKTKPREEQYNSTYRVVSVLTVLHQDWLNGKEYKCKVSNKALPAPIEKTISKAKGQPREPQVYTLPPSREEMTKNQVSLTCLVKGFYPSDIAVEWESNGQPENNYKTTPPVLDSDGSFFLYSKLTVDKSRWQQGNVFSCSVMHEALHNAYTQKSLSLSPGK
light: B6 light with G231R
notes: DVD-Ig; outer hBDB-4G8.3 (VEGF), linkers HG-short/LK-long, inner hBDI-9E8.4 (PDGF); human IgG1 L234A, L235A, H435A / kappa; also called hu VEGF 4G8.3-SL-hu PDGF 9E8.4 (germline) [hu IgG1/k]; LALA H435A; DVD-Ig-3
B8: 4G8.3-GS(9)-9E8.4 (g) (PR-1572102) (bispecific antibody, human IgG1, kappa, L234A L235A)
heavy: EVQLVQSGSELKKPGASVKVSCKASGYTFTNYGMYWVRQAPGQGLEWMGWINTETGKPTYADDFKGRFVFSLDTSVSTAYLQISSLKAEDTAVYYCARTNYYYRSYIFYFDYWGQGTMVTVSSGGGGSGGGGSEVTLRESGPALVKPTQTLTLTCTFSGFSLSTYGMGVGWIRQPPGKALEWLANIWWDDDKYYNPSLKNRLTISKDTSKNQVVLTMTNMDPVDTATYYCARIESIGTTYSFDYWGQGTMVTVSSASTKGPSVFPLAPSSKSTSGGTAALGCLVKDYFPEPVTVSWNSGALTSGVHTFPAVLQSSGLYSLSSVVTVPSSSLGTQTYICNVNHKPSNTKVDKKVEPKSCDKTHTCPPCPAPEAAGGPSVFLFPPKPKDTLMISRTPEVTCVVVDVSHEDPEVKFNWYVDGVEVHNAKTKPREEQYNSTYRVVSVLTVLHQDWLNGKEYKCKVSNKALPAPIEKTISKAKGQPREPQVYTLPPSREEMTKNQVSLTCLVKGFYPSDIAVEWESNGQPENNYKTTPPVLDSDGSFFLYSKLTVDKSRWQQGNVFSCSVMHEALHNAYTQKSLSLSPGK
light: DTVLTQSPATLSLSPGERATLSCRASESVSTHMHWYQQKPGQAPRLLIYGASNLESGVPARFSGSGSGTDFTLTISSLEPEDFAVYFCQQSWNDPFTFGQGTKLEIKRGGSGGGGSGEFVLTQSPGTLSLSPGERATLSCERSSGDIGDSYVSWYQQKPGQAPRLVIYADDQRPSGIPDRFSGSGSGTDFTLTISRLEPEDFAVYYCQSYDINIDIVFGGGTKVEIKRTVAAPSVFIFPPSDEQLKSGTASVVCLLNNFYPREAKVQWKVDNALQSGNSQESVTEQDSKDSTYSLSSTLTLSKADYEKHKVYACEVTHQGLSSPVTKSFNRGEC
notes: DVD-Ig; outer hBDB-4G8.3 (VEGF), linkers GS-H10/GS-L10, inner hBDI-9E8.4 (PDGF); human IgG1 L234A, L235A, H435A / kappa; also called 4G8.3-GS-9E8.4 (g); hu VEGF 4G8.3-GS-hu PDGF 9E8.4 (germline) [hu IgG1/k]; LALA H435A
B9: 4G8.3-GS(11)-9E8.4 (g) (PR-1572103) (bispecific antibody, human IgG1, kappa, L234A L235A)
heavy: B8 heavy
light: DTVLTQSPATLSLSPGERATLSCRASESVSTHMHWYQQKPGQAPRLLIYGASNLESGVPARFSGSGSGTDFTLTISSLEPEDFAVYFCQQSWNDPFTFGQGTKLEIKRGGSGGGGSGGEFVLTQSPGTLSLSPGERATLSCERSSGDIGDSYVSWYQQKPGQAPRLVIYADDQRPSGIPDRFSGSGSGTDFTLTISRLEPEDFAVYYCQSYDINIDIVFGGGTKVEIKRTVAAPSVFIFPPSDEQLKSGTASVVCLLNNFYPREAKVQWKVDNALQSGNSQESVTEQDSKDSTYSLSSTLTLSKADYEKHKVYACEVTHQGLSSPVTKSFNRGEC
notes: DVD-Ig; outer hBDB-4G8.3 (VEGF), linkers GS-H10/GS-L11, inner hBDI-9E8.4 (PDGF); human IgG1 L234A, L235A, H435A / kappa
B10: 4G8.3-GS(noR)-9E8.4 (g) (PR-1572104) (bispecific antibody, human IgG1, kappa, L234A L235A)
heavy: B8 heavy
light: B8 light with R108G, G110S, S111G, G115S, S116G
notes: DVD-Ig; outer hBDB-4G8.3 (VEGF), linkers GS-H10/GS-L10(dR), inner hBDI-9E8.4 (PDGF); human IgG1 L234A, L235A, H435A / kappa
B11: 4G8.3-GS-9E8.4 (PR-1564010) (bispecific antibody, human IgG1, kappa, L234A L235A)
heavy: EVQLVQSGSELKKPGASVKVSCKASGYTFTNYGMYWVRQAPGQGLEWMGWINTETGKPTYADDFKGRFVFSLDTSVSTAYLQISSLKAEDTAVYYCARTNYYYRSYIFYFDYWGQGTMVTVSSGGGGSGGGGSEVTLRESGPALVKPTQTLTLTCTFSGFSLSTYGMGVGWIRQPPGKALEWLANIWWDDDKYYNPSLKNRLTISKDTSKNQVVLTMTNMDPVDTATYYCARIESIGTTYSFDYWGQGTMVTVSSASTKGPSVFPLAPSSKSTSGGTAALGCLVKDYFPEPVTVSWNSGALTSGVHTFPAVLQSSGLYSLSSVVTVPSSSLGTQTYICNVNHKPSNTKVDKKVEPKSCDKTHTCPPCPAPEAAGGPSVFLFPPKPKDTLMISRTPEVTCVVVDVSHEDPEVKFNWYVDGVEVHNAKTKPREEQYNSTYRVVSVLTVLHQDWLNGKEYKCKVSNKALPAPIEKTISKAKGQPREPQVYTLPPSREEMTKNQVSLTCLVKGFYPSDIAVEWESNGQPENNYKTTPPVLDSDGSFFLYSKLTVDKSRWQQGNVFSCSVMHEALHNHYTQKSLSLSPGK
light: B8 light with R228G
notes: DVD-Ig; outer hBDB-4G8.3 (VEGF), linkers GS-H10/GS-L10, inner hBDI-9E8.4 (PDGF); human IgG1 L234A, L235A / kappa

Positions count from the first letter of the chain named. Names and notes keep the numbering of the source.

PDGF-BB, sequence (P01127 82-190): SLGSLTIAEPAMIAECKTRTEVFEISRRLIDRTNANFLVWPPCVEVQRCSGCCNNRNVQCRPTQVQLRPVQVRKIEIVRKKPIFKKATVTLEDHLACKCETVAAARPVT
VEGF-A, sequence (P15692 other isoform, or with tags, fused parts or gaps limits assumed): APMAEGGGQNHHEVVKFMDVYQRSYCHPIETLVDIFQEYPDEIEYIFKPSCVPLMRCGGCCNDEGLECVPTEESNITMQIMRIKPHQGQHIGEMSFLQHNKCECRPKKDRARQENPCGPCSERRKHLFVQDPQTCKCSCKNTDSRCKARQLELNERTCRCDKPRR

The first test concerns the target VEGF-A (UniProt P15692-4 27-191, limits assumed). Description: SPR (Biacore), DVD-Ig captured by anti-human Fc, antigen in flow. As to the method: (§1) For example, approximately 9000 RU of goat anti-human Fc specific polyclonal antibody (Thermo Fisher Scientific Inc., Rockford, Ill.) diluted in 10 mM sodium acetate (pH 4.5) is directly immobilized across a CM5 research grade biosensor chip using a standard amine coupling kit according to manufacturer's instructions and procedures at 25 μg/ml. Unreacted moieties on the biosensor surface were blocked with ethanolamine. For kinetic analysis, rate equations derived from the 1:1 Langmuir binding model were fitted simultaneously to multiple antigen injections (using global fit analysis) with the use of Scrubber 2 (BioLogic Software), Biacore Biaevaluation 4.0.1 software or Biacore T100 Evaluation software. Purified antibodies or DVD-Ig molecules were diluted in running buffer for capture across goat anti-human Fc reaction surfaces. Antibodies or DVD-Ig molecules to be captured as a ligand (1 μg/ml) were injected over reaction matrices at a flow rate of 10 μl/minute. During the assay, all measurements were referenced against the capture surface alone (i.e., with no captured antibody or DVD-Ig molecule). […] The equilibrium dissociation constant KD (M) of the reaction between antibodies and the target antigen was then calculated from the kinetic rate constants by the following formula: KD=Koff/Kₒₙ. Binding was recorded as a function of time and kinetic rate constants were calculated.
For B1, the dissociation constant (Kd) came to 100 pM and the on-rate (kon) came to 920000 M⁻¹ s⁻¹.
B2 registered an equilibrium dissociation constant (Kd) of 190 pM and a kon of 610000 M⁻¹ s⁻¹.
For B3, in that order: 94 pM and 1.1e+06 M⁻¹ s⁻¹.
Consider B4, for which binding was characterised by a dissociation constant (Kd) of 13 pM and the kon turned out to be 3.1e+06 M⁻¹ s⁻¹.
B5 showed a dissociation constant (Kd) of 12 pM and a kon of 3.1e+06 M⁻¹ s⁻¹.
For B6, in that order: 13 pM and 3.1e+06 M⁻¹ s⁻¹.
The matching figures for B7: 11 pM and 5.6e+06 M⁻¹ s⁻¹.
The matching figures for B8: 13 pM and 6e+06 M⁻¹ s⁻¹.
In the case of B9, the Kd turned out to be 12 pM and the kon is 6.3e+06 M⁻¹ s⁻¹.
With B10, binding was put at a Kd of 11 pM and the kon was found to be 6.1e+06 M⁻¹ s⁻¹.
The molecule B11 had a dissociation constant (Kd) of 17 pM and a kon of 3.3e+06 M⁻¹ s⁻¹.

The target in a further test is PDGF-BB (UniProt P01127 82-190). Described as above. As to the method:
as §1
Take B1: binding was put at a Kd of 720 pM and the on-rate constant (kon) is 1e+07 M⁻¹ s⁻¹.
The matching figures for B2: 90 pM and 1e+07 M⁻¹ s⁻¹.
With B3, binding was characterised by a dissociation constant (Kd) of 180 pM and the kon worked out at 1e+07 M⁻¹ s⁻¹.
For B4, in that order: 19 pM and 7.5e+06 M⁻¹ s⁻¹.
The matching figures for B5: 8.6 pM and 1.7e+07 M⁻¹ s⁻¹.
B6 yielded a dissociation constant (Kd) of 9.9 pM and an on-rate (kon) of 1.4e+07 M⁻¹ s⁻¹.
The matching figures for B7: 13 pM and 1.3e+07 M⁻¹ s⁻¹.
For B8, in that order: 13 pM and 1.3e+07 M⁻¹ s⁻¹.
For B9, the Kd was found to be 13 pM and the association rate constant (kon) amounted to 1.4e+07 M⁻¹ s⁻¹.
For B10, in that order: 8.9 pM and 1.5e+07 M⁻¹ s⁻¹.
For B11, in that order: 13 pM and 1e+07 M⁻¹ s⁻¹.
